Measurements from PMC3538848.

Key:
[1] = target: A/Japan/305/1957 (H2N2) hemagglutinin ectodomain (influenza A virus A/Japan/305/1957 (H2N2)); test: negative-stain EM, single-particle 3D reconstruction
[2] = target: A/Hong Kong/1/1968 (H3N2) hemagglutinin ectodomain, biotinylated (influenza A virus A/Hong Kong/1/1968 (H3N2)); test: BLI
[3] = target: A/Hong Kong/1/1968 (H3N2) hemagglutinin ectodomain, biotinylated (influenza A virus A/Hong Kong/1/1968 (H3N2)); test: BLI; remark: listed apart in the source
[4] = target: A/Hong Kong/1/1968 (H3N2) hemagglutinin ectodomain, biotinylated (influenza A virus A/Hong Kong/1/1968 (H3N2)); test: ITC
[5] = target: hemagglutinin of A/Memphis/3/2008 (H1N1) (influenza A virus A/Memphis/3/2008 (H1N1))
[6] = target: hemagglutinin of A/Guiyang/1/1957 (H2N2) (influenza A virus A/Guiyang/1/1957 (H2N2))
[7] = target: hemagglutinin of A/Brisbane/59/2007 (H1N1) (influenza A virus A/Brisbane/59/2007 (H1N1))
[8] = target: A/Vietnam/1203/2004 (H5N1) hemagglutinin ectodomain (influenza A virus A/Vietnam/1203/2004 (H5N1))
[9] = target: hemagglutinin of A/California/04/2009 (H1N1) (influenza A virus A/California/04/2009 (H1N1)) (UniProt C3W5S1)
[10] = target: hemagglutinin of A/Virginia/670/1987 (H1N1) (influenza A virus A/Virginia/670/1987 (H1N1))
[11] = target: hemagglutinin of A/Hong Kong/1073/1999 (H9N2) (influenza A virus A/Hong Kong/1073/1999 (H9N2))

C05 Fab (Lys-C digestion of IgG)
stoichiometry N [1]: 3

C05 Fab (recombinant, for binding studies)
Kd [2]: 500 nM
Kd [3]: 430 nM
Kd [4]: 100 nM

C05 IgG (antibody)
MIC, hemagglutination inhibition (HAI) [5]: < 2.3 µg/mL
MIC, microneutralization (MN) [6]: 18 µg/mL
MIC, hemagglutination inhibition (HAI) [7]: 1.56 µg/mL
MIC, hemagglutination inhibition (HAI) [8]: > 100 µg/mL
MIC, hemagglutination inhibition (HAI) [9]: > 100 µg/mL
MIC, hemagglutination inhibition (HAI) [10]: > 100 µg/mL
MIC, microneutralization (MN) [11]: 90 µg/mL
